Our source for the other values is PMC7072561.

The conditions of the series: ubiquitination at K63.

For the substance ubiquitin (HA-tagged): ubiquitin K63R, the other result is “decreases”.
